For 1 molecule, Kd results are on record in publication PMC6491619, “Development and application of a high-content virion display human GPCR array” (Nature Communications, 2019).

No end group written: not given here.

Holding throughout (test): virion-oscillator (plasmonic imaging, SPR read-out); VirD-GPCR virions tethered to a gold chip by a PEG linker and driven by a sinusoidal potential (5 Hz); label-free SRIF-14 perfused at several doses; first-order kinetics model
Conditions in all cases: one partner purified

Experiment [1] addresses T1, VirD-NTSR1 (human, UniProt P30989 1-418).
T1 construct: source: recombinant HSV-1 (UL27 locus); virions from infected cells (in most cases Vero), purified by sucrose cushion; also on infected Vero cells; not shown: V5, C-terminal, kept

Experiment [2] addresses T2, VirD-KISS1R (human, UniProt Q969F8 1-398).
T2 construct: source: recombinant HSV-1 (UL27 locus); virions from infected cells (in most cases Vero), purified by sucrose cushion; also on infected Vero cells; not shown: V5, C-terminal, kept

The target of experiment [3] is T3, VirD-GABBR2 (human, UniProt O75899 42-941).
T3 construct: source: recombinant HSV-1 (UL27 locus); virions from infected cells (in most cases Vero), purified by sucrose cushion; also on infected Vero cells; not shown: V5, C-terminal, kept
T3 sequence: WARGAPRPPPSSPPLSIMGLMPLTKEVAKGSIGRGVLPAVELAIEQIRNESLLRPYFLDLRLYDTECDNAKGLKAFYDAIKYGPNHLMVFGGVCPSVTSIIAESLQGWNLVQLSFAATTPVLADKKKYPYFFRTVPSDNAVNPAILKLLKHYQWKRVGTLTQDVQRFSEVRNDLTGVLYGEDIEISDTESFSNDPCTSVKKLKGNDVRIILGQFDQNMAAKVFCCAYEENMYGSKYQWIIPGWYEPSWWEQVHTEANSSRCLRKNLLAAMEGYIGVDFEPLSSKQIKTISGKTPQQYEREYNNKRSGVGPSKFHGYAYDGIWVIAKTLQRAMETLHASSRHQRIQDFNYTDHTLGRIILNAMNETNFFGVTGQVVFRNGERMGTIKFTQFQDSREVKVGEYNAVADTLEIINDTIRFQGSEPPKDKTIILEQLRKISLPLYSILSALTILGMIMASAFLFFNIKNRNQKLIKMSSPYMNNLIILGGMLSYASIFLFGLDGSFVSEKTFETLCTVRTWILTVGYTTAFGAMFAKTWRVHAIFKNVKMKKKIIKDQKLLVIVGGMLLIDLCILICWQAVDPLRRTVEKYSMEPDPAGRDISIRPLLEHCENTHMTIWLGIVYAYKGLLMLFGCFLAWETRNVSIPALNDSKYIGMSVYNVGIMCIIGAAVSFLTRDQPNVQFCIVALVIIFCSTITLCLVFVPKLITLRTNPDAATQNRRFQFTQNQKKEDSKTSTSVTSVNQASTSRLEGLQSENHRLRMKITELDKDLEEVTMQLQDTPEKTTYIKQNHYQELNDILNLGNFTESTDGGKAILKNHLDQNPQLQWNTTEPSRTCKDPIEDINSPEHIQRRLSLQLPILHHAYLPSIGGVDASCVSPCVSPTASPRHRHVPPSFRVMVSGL

T2 sequence (Q969F8 whole entry): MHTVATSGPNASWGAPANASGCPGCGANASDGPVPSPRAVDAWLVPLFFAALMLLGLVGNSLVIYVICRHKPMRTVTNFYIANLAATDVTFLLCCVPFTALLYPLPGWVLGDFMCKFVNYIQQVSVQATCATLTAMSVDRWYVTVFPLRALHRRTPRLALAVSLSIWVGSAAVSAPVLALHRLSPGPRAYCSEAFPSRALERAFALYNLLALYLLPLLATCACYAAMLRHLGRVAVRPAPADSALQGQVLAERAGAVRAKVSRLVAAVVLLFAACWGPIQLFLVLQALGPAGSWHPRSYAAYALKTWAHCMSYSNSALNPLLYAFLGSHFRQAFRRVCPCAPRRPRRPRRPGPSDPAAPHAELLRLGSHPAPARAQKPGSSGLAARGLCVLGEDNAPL
T1 sequence (P30989 whole entry): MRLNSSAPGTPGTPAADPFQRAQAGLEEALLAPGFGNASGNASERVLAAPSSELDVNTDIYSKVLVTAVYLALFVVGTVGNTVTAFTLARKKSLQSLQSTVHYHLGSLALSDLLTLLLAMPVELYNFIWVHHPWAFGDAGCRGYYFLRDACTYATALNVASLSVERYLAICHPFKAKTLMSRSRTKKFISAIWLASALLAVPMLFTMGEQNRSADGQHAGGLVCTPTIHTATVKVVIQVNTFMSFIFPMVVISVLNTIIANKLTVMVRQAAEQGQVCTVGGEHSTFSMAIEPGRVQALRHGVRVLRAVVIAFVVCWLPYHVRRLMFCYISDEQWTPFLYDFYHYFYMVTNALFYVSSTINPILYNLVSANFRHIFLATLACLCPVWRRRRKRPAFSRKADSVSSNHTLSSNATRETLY

B1: somatostatin-14 (SRIF-14), unlabeled (peptide)
peptide: AGCKNFFWKTFTSC
modifications: not fully specified (bridges); ends and bridges not checked
notes: somatostatin-14 (SRIF-14), cut product of the somatostatin precursor; also called cold SRIF-14; SIRF-14; source: bought: AnaSpec (peptide)
B1: the Kd came to 2600 nM in experiment [1], 25000 nM in experiment [2] and 400 nM in experiment [3].
